System: T1, C=C(OP(=O)(O)O)C(=O)O
T1 construct: full length, 622 residues, N-terminal His6-SUMO tag cleaved off with no additional amino acids; codon-optimised gene in pESUMO-Star; E. coli BL21(DE3); EC 4.1.1.32
Test: purified protein
Format: biochemical, Polaromonas naphthalenivorans
Conditions: 25 °C, pH 7.5, 1 mM GDP, 50 mM KHCO3, 4 mM MgCl2, 100 μM MnCl2, PEP carboxylation direction

Question: “PnPEPCK (Polaromonas naphthalenivorans CJ2)” was tested. Which Km did it give?
Answer: 2500 ± 650 µM

Question: And the kcat?
Answer: 23 ± 1.4 s⁻¹

Question: What about the kcat/Km of the same substance?
Answer: 9200 M⁻¹ s⁻¹
